Target: rac1_human RAC1 (UniProt P63000)

Substance | effect of a mutation on the interaction
Leucine-rich repeat serine/threonine-protein kinase 2 (Homo sapiens), Q5S007 G2019S | decreasing interaction
Leucine-rich repeat serine/threonine-protein kinase 2 (Homo sapiens), Q5S007 I2020T | increasing interaction
Leucine-rich repeat serine/threonine-protein kinase 2 (Homo sapiens), Q5S007 K1906M | decreasing interaction
Leucine-rich repeat serine/threonine-protein kinase 2 (Homo sapiens), Q5S007 R1441C | disrupting interaction
Leucine-rich repeat serine/threonine-protein kinase 2 (Homo sapiens), Q5S007 Y1699C | increasing interaction

Target: lrrk2_human LRRK2 (UniProt Q5S007)

Substance | effect of a mutation on the interaction
Ras-related C3 botulinum toxin substrate 1 (Homo sapiens) (from UniProt P63000) T17N | decreasing interaction
